In patent US20160009813A1 (Memorial Sloan Kettering, published 2016):

Biological target: T1, human CD19 (human, UniProt P15391 20-556)
T1 sequence (looked up): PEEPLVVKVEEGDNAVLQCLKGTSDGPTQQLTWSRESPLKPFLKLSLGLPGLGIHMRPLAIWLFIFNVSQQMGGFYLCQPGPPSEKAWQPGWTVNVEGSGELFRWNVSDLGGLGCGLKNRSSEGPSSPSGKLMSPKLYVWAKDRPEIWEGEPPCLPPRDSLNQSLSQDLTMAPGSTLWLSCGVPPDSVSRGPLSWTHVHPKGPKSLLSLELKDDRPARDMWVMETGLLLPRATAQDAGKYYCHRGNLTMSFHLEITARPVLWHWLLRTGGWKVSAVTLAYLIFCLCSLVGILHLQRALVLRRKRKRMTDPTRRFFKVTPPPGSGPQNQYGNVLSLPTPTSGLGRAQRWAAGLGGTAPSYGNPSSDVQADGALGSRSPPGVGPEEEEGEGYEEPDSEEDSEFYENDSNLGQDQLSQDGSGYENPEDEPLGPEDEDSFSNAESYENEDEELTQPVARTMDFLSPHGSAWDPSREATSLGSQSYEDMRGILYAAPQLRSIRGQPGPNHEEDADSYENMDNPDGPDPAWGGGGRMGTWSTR
Assay: cell-based or functional assay

expansion after one stimulation with 3T3-CD19 cells (mean): 20 fold
expansion after three weekly stimulations with 3T3-CD19 cells: ~1000 fold
B1: 1928z chimeric antigen receptor (CD19-specific second-generation CAR: SJ25C1-derived scFv, CD28, CD3 zeta) (receptor)
chain: EVKLQQSGAELVRPGSSVKISCKASGYAFSSYWMNWVKQRPGQGLEWIGQIYPGDGDTNYNGKFKGQATLTADKSSSTAYMQLSGLTSEDSAVYFCARKTISSVVDFYFDYWGQGTTVTVSSGGGGSGGGGSGGGGSDIELTQSPKFMSTSVGDRVSVTCKASQNVGTNVAWYQQKPGQSPKPLIYSATYRNSGVPDRFTGSGSGTDFTLTITNVQSKDLADYFCQQYNRYPYTSGGGTKLEIKRAAAIEVMYPPPYLDNEKSNGTIIHVKGKHLCPSPLFPGPSKPFWVLVVVGGVLACYSLLVTVAFIIFWVRSKRSRLLHSDYMNMTPRRPGPTRKHYQPYAPPRDFAAYRSRVKFSRSAEPPAYQQGQNQLYNELNLGRREEYDVLDKRRGRDPEMGGKPRRKNPQEGLYNELQKDKMAEAYSEIGMKGERRRGKGHDGLYQGLSTATKDTYDALHMQALPPR
